± gives the standard deviation of the averaged measurements.
B1: library; a variant is named by its letters at N, in order (parent)
chain: GCUGUCACCGAGAAACUGUGAAGUAUAUCUUAAACCUGGGCACUUAAAAGAUAUAUGGAGUUAGUAGUGCAACCUGCUCGGUCUGAUGAGUCCNNNNNNGGACGAAACAGC

Assays:
[1] = variants of: B1; assay: FACS-Seq fitted mean relative fluorescence mCherry/BFP without ligand (log10 relative fluorescence); HEK293T; ligand: cyclic di-GMP (c-di-GMP-II aptamer); higher = higher reporter protein expression; settings: ligand present: no
In short: (§1)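 Lentivirally transduced HEK293T libraries carried an mCherry reporter with the ribozyme switch and an EF1α-BFP marker. Transduced cells were enriched, then incubated with or without ligand for 48 h and sorted into 6 bins by mCherry/BFP. Genomic DNA from each bin was PCR-amplified, barcoded and sequenced on MiSeq. Fluorescence was the fitted normal mean of log10(mCherry/BFP) bin counts, scaled to five spiked-in control ribozymes.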

[2] = variants of: B1; assay: normalized RNA/DNA level without ligand (relative to sTRSVctl = 100) (log10 (% of sTRSVctl)); HEK293T; ligand: cyclic di-GMP (c-di-GMP-II aptamer); higher = less ribozyme self-cleavage, higher mRNA level; settings: reporter: mCherry (pCS4076), ligand present: no
In short: (§2)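 For each 6-well well, 4 µg of library plasmid encoding mCherry-linked ribozyme switches, or eGFP-linked ones in some ligand experiments, was transfected into HEK293T. Any ligand was added 1 h before transfection, and RNA was extracted with EDTA 72 h after it, then reverse-transcribed, amplified, barcoded and sequenced. RNA level was obtained by dividing RNA reads by DNA reads, normalizing to a spiked-in non-cleaving sequence or to the top sequences, then scaling and log-transforming. The top set was 25 sequences, scaling was ×100 with log10, and ≥100 DNA reads were required.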

[3] = variants of: B1; assay: FACS-Seq fitted mean relative fluorescence mCherry/BFP with ligand (log10 relative fluorescence); HEK293T; ligand: cyclic di-GMP (c-di-GMP-II aptamer); ligand concentration (+) FACS-Seq: 1 mM; higher = higher reporter protein expression; settings: ligand present: yes
In short: as §1

[4] = variants of: B1; assay: normalized RNA/DNA level with ligand (relative to sTRSVctl = 100) (log10 (% of sTRSVctl)); HEK293T; ligand: cyclic di-GMP (c-di-GMP-II aptamer); ligand concentration (+) RNA-Seq: 1 mM; higher = less ribozyme self-cleavage, higher mRNA level; settings: reporter: mCherry (pCS4076), ligand present: yes
In short: as §2

Variant	FACS-Seq fitted mean (log10) [1]	normalized RNA/DNA level without ligand (log10) [2]	FACS-Seq fitted mean (log10) [3]	normalized RNA/DNA level with ligand (log10) [4]
CGCAAU	-0.449 ± 0.027	1.45 ± 0.087	-0.206 ± 0.045	1.61 ± 0.078
CGCAAA	-0.531 ± 0.011	1.26 ± 0.097	-0.262 ± 0.015	1.47 ± 0.085
AGCGAA	-0.109 ± 0.022	1.41 ± 0.069	0.163 ± 0.081	1.61 ± 0.15
AGGCAG	-0.6414 ± 0.0033	1.758 ± 0.0064	-0.399 ± 0.084	1.83 ± 0.097
CGGAUA	-0.243 ± 0.057	1.19 ± 0.13	0.0478 ± 0.023	1.3 ± 0.1
CGGAUU	-0.623 ± 0.0076	1.4 ± 0.18	-0.3382 ± 0.0012	1.54 ± 0.038
UGCAAU	-0.335 ± 0.12	1.66 ± 0.045	-0.151 ± 0.047	1.81 ± 0.089
AGCAAU	-0.834 ± 0.048	1.74 ± 0.037	-0.638 ± 0.037	1.87 ± 0.16
AGCAAA	-0.531 ± 0.032	1.48 ± 0.042	-0.277 ± 0.1	1.64 ± 0.14
AGCCAA	-0.274 ± 0.071	1.53 ± 0.072	-0.0148 ± 0.057	1.73 ± 0.053
AGGAUA	-0.5971 ± 0.0057	1.34 ± 0.12	-0.199 ± 0.011	1.49 ± 0.018
AGGAUG	-0.151 ± 0.021	1.48 ± 0.054	-0.029 ± 0.059	1.63 ± 0.16
AGGAUC	-0.0729 ± 0.071	1.63 ± 0.023	0.137 ± 0.019	1.78 ± 0.1
CGCUUU	-0.255 ± 0.035	1.46 ± 0.071	0.0291 ± 0.018	1.69 ± 0.073
CGCUUA	-0.545 ± 0.077	1.27 ± 0.17	-0.264 ± 0.015	1.46 ± 0.036
CGCUAU	-1.02 ± 0.037	1.41 ± 0.12	-0.866 ± 0.11	1.64 ± 0.094
CGCUAC	-0.231 ± 0.14	1.65 ± 0.021	0.045 ± 0.046	1.81 ± 0.11
CGCUAA	-0.647 ± 0.045	1.22 ± 0.066	-0.386 ± 0.093	1.37 ± 0.059
AGCACG	-0.192 ± 0.0049	1.61 ± 0.036	0.065 ± 0.026	1.77 ± 0.13
AGCACU	0.129 ± 0.16	1.7 ± 0.023	0.4 ± 0.012	1.82 ± 0.12
AGGAGA	-0.574 ± 0.012	1.37 ± 0.12	-0.304 ± 0.011	1.48 ± 0.025
UGCUUU	0.0721 ± 0.19	1.73 ± 0.025	0.309 ± 0.091	1.87 ± 0.11
CGGACA	-0.421 ± 0.083	1.4 ± 0.13	-0.265 ± 0.047	1.58 ± 0.085
CGGACG	-1.09 ± 0.056	1.77 ± 0.072	-1.17 ± 0.31	1.87 ± 0.11

Variant	FACS-Seq fitted mean (log10) [1]	normalized RNA/DNA level without ligand (log10) [2]	FACS-Seq fitted mean (log10) [3]	normalized RNA/DNA level with ligand (log10) [4]
CGGACU	-0.791 ± 0.13	1.48 ± 0.14	-0.611 ± 0.11	1.64 ± 0.11
UGGAAC	-0.221 ± 0.031	1.64 ± 0.033	0.11 ± 0.0057	1.83 ± 0.075
UGGAAU	-0.121 ± 0.12	1.57 ± 0.041	0.272 ± 0.075	1.77 ± 0.13
CGGAGC	0.169 ± 0.11	1.61 ± 0.052	0.426 ± 0.022	1.79 ± 0.065
UGGACU	-0.517 ± 0.12	1.69 ± 0.076	-0.118 ± 0.075	1.86 ± 0.045
GGCGAG	-0.757 ± 0.036	1.5556 ± 0.00075	-0.498 ± 0.0053	1.68 ± 0.14
UGAUUU	0.198 ± 0.26	1.69 ± 0.047	0.343 ± 0.1	1.86 ± 0.16
AGCAUG	-0.472 ± 0.038	1.53 ± 0.031	-0.236 ± 0.053	1.71 ± 0.055
AGCUUG	-0.0154 ± 0.14	1.59 ± 0.041	0.223 ± 0.0032	1.81 ± 0.14
UGCGUU	-0.0716 ± 0.19	1.691 ± 0.0015	0.15 ± 0.093	1.9 ± 0.096
AGCGGU	-0.189 ± 0.03	1.64 ± 0.024	0.149 ± 0.093	1.8 ± 0.1
CGCAUG	-0.455 ± 0.031	1.627 ± 0.0082	-0.162 ± 0.14	1.8 ± 0.12
CGCAUA	-0.777 ± 0.12	1.29 ± 0.082	-0.5758 ± 0.0012	1.52 ± 0.17
CGGCGC	-0.498 ± 0.2	1.8 ± 0.044	-0.494 ± 0.095	1.94 ± 0.069
UGCAUG	-0.116 ± 0.0019	1.734 ± 0.0063	0.0785 ± 0.1	1.85 ± 0.13
UGCAUC	-1.13 ± 0.034	1.78 ± 0.026	-0.952 ± 0.082	1.87 ± 0.099
UGAUGU	-0.179 ± 0.057	1.63 ± 0.052	0.187 ± 0.058	1.84 ± 0.089
CGCUCU	-0.865 ± 0.06	1.54 ± 0.049	-0.64 ± 0.039	1.73 ± 0.1
CGCGUA	-0.52 ± 0.06	1.45 ± 0.16	-0.224 ± 0.062	1.638 ± 0.011
CGGAAU	-0.644 ± 0.016	1.34 ± 0.11	-0.366 ± 0.027	1.44 ± 0.13
CGGAAA	-0.619 ± 0.028	1.16 ± 0.075	-0.44 ± 0.058	1.28 ± 0.09
AGCAGA	-0.373 ± 0.045	1.564 ± 0.0029	-0.1 ± 0.017	1.69 ± 0.19
AGCAGC	-0.317 ± 0.18	1.72 ± 0.048	-0.109 ± 0.057	1.86 ± 0.069
CGGCAA	-0.818 ± 0.011	1.28 ± 0.077	-0.675 ± 0.04	1.47 ± 0.097

Variant	FACS-Seq fitted mean (log10) [1]	normalized RNA/DNA level without ligand (log10) [2]	FACS-Seq fitted mean (log10) [3]	normalized RNA/DNA level with ligand (log10) [4]
CGGCAU	-0.564 ± 0.044	1.49 ± 0.073	-0.2893 ± 0.0014	1.64 ± 0.13
CGGCAC	-0.036 ± 0.21	1.64 ± 0.038	0.073 ± 0.042	1.8 ± 0.12
UGGCAU	0.119 ± 0.25	1.66 ± 0.11	0.414 ± 0.038	1.82 ± 0.043
AGGACA	-0.264 ± 0.0046	1.48 ± 0.11	-0.014 ± 0.086	1.63 ± 0.12
UGCGAG	-0.503 ± 0.0063	1.7 ± 0.039	-0.177 ± 0.052	1.8 ± 0.081
AGGAAA	-0.514 ± 0.031	1.33 ± 0.15	-0.185 ± 0.026	1.52 ± 0.1
AGGAAU	-0.199 ± 0.032	1.6 ± 0.042	0.123 ± 0.1	1.76 ± 0.1
AGGAAG	-0.88 ± 0.017	1.38 ± 0.13	-0.6586 ± 0.0033	1.52 ± 0.13
CGCUGA	-0.177 ± 0.072	1.53 ± 0.057	0.0499 ± 0.0086	1.72 ± 0.067
CGCUGU	0.3 ± 0.092	1.776 ± 0.0024	0.433 ± 0.014	1.9 ± 0.13
AGAUUA	-0.549 ± 0.084	1.49 ± 0.078	-0.245 ± 0.019	1.69 ± 0.15
AGCUGC	-0.105 ± 0.077	1.74 ± 0.044	0.255 ± 0.092	1.87 ± 0.14
AGCCUA	-0.0368 ± 0.15	1.62 ± 0.011	0.288 ± 0.026	1.8 ± 0.15
AGCCUU	0.0156 ± 0.081	1.712 ± 0.003	0.33 ± 0.038	1.85 ± 0.084
AGCUCG	-0.0835 ± 0.12	1.74 ± 0.095	0.217 ± 0.076	1.88 ± 0.039
CGCCAC	-0.0985 ± 0.057	1.69 ± 0.027	0.173 ± 0.026	1.84 ± 0.12
CGCCAA	-0.26 ± 0.2	1.37 ± 0.045	0.0764 ± 0.12	1.56 ± 0.15
CGCCAU	-0.339 ± 0.042	1.5 ± 0.12	-0.0661 ± 0.036	1.69 ± 0.078
CGGCCA	-0.425 ± 0.033	1.57 ± 0.099	-0.137 ± 0.0032	1.73 ± 0.11
CGCCUC	0.0848 ± 0.15	1.713 ± 0.011	0.399 ± 0.0065	1.85 ± 0.067
CGCCUA	-0.608 ± 0.088	1.37 ± 0.12	-0.414 ± 0.049	1.58 ± 0.12
CGCCUU	-0.439 ± 0.021	1.5321 ± 0.00037	-0.126 ± 0.059	1.72 ± 0.13
AGCGUG	-0.586 ± 0.017	1.6 ± 0.017	-0.279 ± 0.04	1.78 ± 0.14
AGCGUC	-0.71 ± 0.022	1.78 ± 0.028	-0.542 ± 0.044	1.9 ± 0.15

From the supplement of paper PMC6757056
